Experimental data: the RNAGym collection of RNA variant scans (doi:10.1073/pnas.2313332121)
Variants at the floor of the assay were thinned out.

B1: TPR 5TU (parent)
chain: GGAUCUUCUCGAUCUAACAAAAAAGACAAAUCUGCCACAAAGCUUGAGAGCAUCUUCGGAUGCAGAGGCGGCAGCCUUCGGUGGCGCGAUAGCGCCAACGUUCUCAACUAUGACACGCAAAACGCGUGCUCCGUUGAAUGGAGUUUAUCAUG

Variants of: B1
Assay: polymerase ribozyme fitness, log enrichment relative to wild type (log ratio); higher = more active; in vitro selection for triplet polymerase activity
How it was run: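 PCR was used to build mutant libraries for each subunit of a heterodimeric triplet polymerase ribozyme, which were then transcribed. A single in vitro selection round, in triplicate, used a frozen incubation at −7 °C and recovered extended constructs by gel excision, streptavidin beads and RT-PCR. Fitness is the logarithm of genotype enrichment relative to wild-type enrichment, averaged over replicates with inverse-variance weights. The logarithm is base 2, and after Illumina sequencing only genotypes with ≥10 input reads and ≥1 read per output were kept.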

Row | Variant | polymerase ribozyme fitness (log ratio)
1 | GGAUCUUCUCGAUCUAGCAAAAAAGACAAAUCUGCCACAAAGCUUGAGAGCAUCUUCGGAUGCAGACGCGGCAGCCUUCGGUGGCACGAUAGCGCCAACGUUCUCAACUAUGACACGCAAAACGCGUGCUCCGUUGAAUGGAGUUUAUCAUG | ≤ -4.2
2 | GGAUCUUCUCGAUCUAUCAAAUAAGACAAAUCUGCCACAAAGCAUGAGAGCAUCUUCGGAUGCAGAGGCGGCAGCCUUCGGUCGCGCGAUAGCGCCAACGUUCUCAACUAUGACACGCAAAACGCGUGCUUCGUUGAAUGGAGUUUAUCAUG | ≤ -4.2
3 | GGAUCUUCUCGAUCUAUCAAAAUAGACAAAUCUGCGACAAAGCUUGAGAGCAUCUUAGGAUGCAGAGGCUGCAGCCUCCGGUGGUGCGAUAGCGCCAACGUUGUCAACUAUGACACGCAAAACGCGUGCUCCGUUGAAUGGAGUUUCUUAUG | ≤ -4.2
4 | GGAUCUUCUCGAUCUAUCAACAAAGACAAAUCUGCCACAAAGCAUGAGCGCAUCUUCGGAUGCAGAGGCGGAAGCCUUCGGAGGCGCGAUAGCGCCAACGUUCUCAACUAUGACACGCAAAACGCGUGCUCCGAUGAAUGGAGUUUAUCAUG | ≤ -4.2
5 | GGAUCUUCUCGAUCUAUCAAAAAGGGCAAAUCUGCCACAAAGCUUGGGAACAUCUUCGGAUGCACAGGCGGCAGCCUUCGGUGGCGCGAUAGCGCCAACGUUCUCAACUACGACACGCAAAACGCGUGCUCCGUUGAAUGGUGUUUAUCAUG | ≤ -4.2
6 | GGAUCUUCUCGAUCUAUCUAAAAAGACAAAUCUGCCACAAAGCUUGAGAGCAUCUUCGGAUGUAGAGCCGGCAGCCUUCGGUGGCGCGAUAGCGUAAACGUUCUCAACUAUGACACGCAAAACGCGUGCUCCGUUGAAUAGAGUUUAUCAUG | ≤ -4.2
7 | GGAUCUUCUCGAUCUAUCUAAGAAGACAAAUCUGCCACAAAGCUUGAGAGCAUCUUCGGAUGCAGAGGCGGCAGCCUUCGGUGGCGCUAUAGCGCCAACGUUCUCAACUGUGACACGCAAAACGCGUGCUCCGUUGAAUGGAGUUUAUCAUG | ≤ -4.2
8 | GGAUCUUCUCGAUCUAUCAAUAAAGACAAAUCUGCCACAAAGCUUGAGAGCAUCAUCGGAUGCAGAGGCGGCAGCCUUCGGUGGCGCGAUCGCGGCAUCGUUCUCAAGUAUGACACGCAAAACGCGUGCUCCGUUGAAUGGAGUUUAUCAUG | ≤ -4.2
9 | GGAUCUUCUCGAUCUAGCAAAAAAGACAAAUCUGCCACAAAGCUUGAGAGCAUCUUCGGAUGCAGAGGCGGCAGCCUUCGGUGGCGCGAUAGCGCCAACGUUCUCAAUUAUGACACGCAAAACGCGUGCUCCGUUGAAUGGAGUUUAUCAUG | -3.09
10 | GGAUCUUCUCGAUCUAGCAAAAAAGACAAAUCUGCCACAAAGCUUGAGAGCAUCUUCGGAUGCAGAGGCGGCAGCCUUCGGUGGCGCGAUAGCGCCAACGUUCUCAACGAUGACACGCAAAACGCGUGCUCCGUUGAAUUGAGUUUAUCAUG | -3.77
11 | GGAUCUUCUCGAUCUAUCAAGAAAGAGUAAUCUGCCACAAAGCUUGAGAGCAUCUUCGGAUGCAGAGGCGGCAGCCUUCGGUGGAGUGAUAGCGGCAACGUUCUCAACUAUGACACGCAAAACGCGUGCUCCGUUGAAUGGAGUUUAUCAUG | ≤ -4.2
12 | GGAUCUUCUCGAUCUAGCAAAAAAGACAAAUCUGCCACAAAGCUUGAGAGCAUCUUCGGAUGCAGAGGCGGCAGCCUUCGGUGGCGCGAUAGCGCCAACGUUCUCAACUAUGACACGCAAAACGAGUGCUCCGUUGAAUGGAGUUUAUCAUG | 0.215
13 | GGAUCUUCUCGAUCUAGCAAAAAAGACAAAUCUGCCACAAAGCUUGAGAGCAUCUUCGGAUGCAGAGGCGGCAGCCUUCGGUGACGCGAUAGCGCCAACGUUCUCAACUAUGACACGCAAAACGCGUGCUCCGUUGAAUGGAGUUUCUCAUG | -0.273
14 | GGAUCUUCUCGAUCUAUCUAAUAAGACAAAUCUGCCACAAAGCUUGAGAGCAUCUUCGGAAGCAGAGGCGGCAGCCUUCGGUAACGCGAUAGCGCCAACUUUCUCAACUAUGACACGCAAAACGCGUGCUCCGUUGAAUGGAGUUUAUCAUG | ≤ -4.2
15 | GGAUCUUCUCGAUCUAUCUAAAAAGACAAAUCUGCCUCAAAGCUUGAGAGCAACUUCAGAUGCAGAGGCGGCAGCCUUCGGUGGCGCGAUAGCGACAACGUUCUCAACUAUGACACGCAAGCCGCGUGCUCCGUUGAAUGGAGUUUAUCAUG | -3.75
16 | GGAUCUUCUCGAUCUAUCACAAAAGCCAAAUCUGCCACAAAGCUUGAGAGCAUCUUCGGAUGCAGAGGCGGCAGCCUUCGGUGGCGCGAUAGUGCCAACGUUCUCAACUAUGACACGCAAAACGCGUGCUUCGUUGAAUGGAGUUUAUCAUG | -2.3
17 | GGAUCUUCUCGAUCUAGCAAAAAAGACAAAUCUGCCACAAAGCUUGAGAGCAUCUUCGGAUGCAGAGGCGGCAGCCUUCGGUGACGCGAUAGCGCCAACGUUCUCAACUAUGACACGCAAAACGCGUGCUCCGUUGAAUGGAGUUUAUCAUG | -0.469
18 | GGAUCUUCUCGAUCUAGCAAAAAAGACAAAUCUGCCACAAAGCUUGAGAUCAUCUUCGGAUGCAGAGGCGGCAGCCUUCGGUGGCGCGAUAGCGUCAACGUUCUCAACUAUGACACGCAAAACCCGUGCUCCGUUGAAUGAAGUUUAUCAUG | -0.476
19 | GGAUCUUCUCGAUCUAGCAAAAAAGACAAAUCUGCCACAAAGCUUGAGAGCAUCUUCGGAUGCAGAGGCGGCAGCCUUCGGUGGCGCGAUAGCGCCAACGAUCUGAACUAUGACACGCAAAACGCGUGCUCCGUUGAAUGGAGUUUAUCAUG | -3.18

Row | Variant | polymerase ribozyme fitness (log ratio)
20 | GGAUCUUCUCGAUCUAGCAAAAAAGACAAAUCUGCCACAAAGCUUGAGAGCAUCUUCGGAUGCAGAGGCGGCAGCCUUCGGUGGCGCGAUAGCGCCAACGUUCUCAACUAUGACACGCAAAACGCGUGCUCCGUUGAAUGGAGUCUAUCAUG | 0.174
21 | GGAUCUUCUCGAUCUAUCAGAAAAGACAAAUCUGCCACAAAGCUUGAGAGCAUCUUCGGAUGAAGAGGCGGCAGCCUUCGGUGGCGCGAUAACGCCAACGUUCUCAACUAUGACACGCAAAACGCGUGCUCCGUUGAAUGGAGUUUAUCUUG | -2.12
22 | GGAUCUUCUCGAUCUAGCAAAAAAGACAAAUCUGCCACAAAGCUAGAGAACAUCUUCGGAUUCAGAGGCGGCAGCCUUGGGUGGCUCGAUAGCGCCAACGUUAUCAACUAUGACACGCAAAACGCGUGCUCCGUUGAAUGGAGUUUAUCAUG | ≤ -4.2
23 | GGAUCUUCUCGAUCUAGCAAAAAAGACAAAUCUGCCACAAAGCUUGAGAGCAACUUCGGAUGCAGAGGCGGCAGCCUUCGGUGGCGCGAUAGCGCCAAGGUUCUCAACUAUGACACGCAAAACGCGUGCCCCGUUGAAUGGAGUUUAUCAUG | ≤ -4.2
24 | GGAUCUUCUCGAUCUAGCAAAAAAGACAAAUCUGCCACAAAGCUUAAGAGCAUCUUCGGAUGCAGAGGAGGCAGCCUUCGGUGGCGCGAUAGCGCCAACGUUCUCAACUAUGACACGCAAGACGCGUGCUCCGUUGAAUGGAGUUUAUCAUG | -3.45
25 | GGAUCUUCUCGAUCUAGCAAAAAAGACAAACCUGGCACAAAGCUUGAGAGCAUCUUCGGAUGCAGAGGCGGCAGCCUUCGGUGGCACGAUAGCGCCAACGUUCUCAACUAUGACACGCAAUACGCGUGCUCCGUUGAAUGGAGUUUAUCAUG | -4.19
26 | GGAUCUUCUCGAUCUAUCAAAAAAGACAAAUCUGCCACAAAGCUUGAGAGCAUCUUCGGAUGCAGAGGCGGCAGCCUUCGGUGGCGCGAUAGCGCCAACGUUCUCAACUAUGACACGCAAAACGCGUGCUCCGUUGAAUGGAGUUUAUCAUG | -0.256
27 | GGAUCUUCUCGAUCUAUCAGAAAAGACAAAUCUGCCACAAACCUUGAGAGCAUCUUCGGAUGCAGAGGCGGCAGCCUUCGGUGGUGCGAUAGCGCCAACGUUCUCAACUAUGACACGCAAAACGCGUCCUCCGUUGAAUGGAGUUUAUCAUG | ≤ -4.2
28 | GGAUCUUCUCGAUCUAGCAAAAAAGACAAAACUGCCACAAAGCUUGAGAGCAUCUUCGGAUGCAGAGGCGGCAGCCUUCGGUGGCGCGACAGUGCCAAGGUUCUCAACUAUGACACGCAAAACGAGUGCUCCGUUGCAUGGACUUUAUCAUG | ≤ -4.2
29 | GGAUCUUCUCGAUCUAGCAAAAAAGACAAAUCUGCCACAAAGCUUGAGAGCAUCUUCGGAUGCAGAGGCGGCAGCCUUCGGUGGCGCGACAGUGCCAACGUUCUGAACUAUGACACGCAAAGCGCGUGCUCCGUUGAAUGGACUUUAUCAUG | ≤ -4.2
30 | GGAUCUUCUCGAUCUAGCAAAAAAGACAAAUCUGCCACAAAGCUUGAGAGCAUCUUCGGAUGCAGAGGCGGCAGCCUUCGGUGGCGCGAUAGCGCCAACGUUCUCAACUAUGACACGCAAAACGCGUGCUCGGUUGAAUGGAGUUUAUCAUG | -3.28
31 | GGAUCUUCUCGAUCUAGCAAAAAAGACAAAUCUGCCACAAAGCUGGAGAGCAUCUUCGGAUGCAGAGGCGGCAGCCUUCUGUGGCGCGAUAGCGCCAACGUUCUCAACUAUGACACGCAAAACGCGUGCUCCGUUGAAUGGAGUUUAUCAUG | ≤ -4.2
32 | GGAUCUUCUCGAUCUAUCAAUAAAGACAAAUCUGCCACAAAGCUUGAGAGCAUCUUCGGAUGCAGACGCGGCAGCUUUCGGUGGCGCGAUUGCGCCAACGUUCUCAACUAUGACACGGAAAACGCGUGCUCCGUUGAAUGGAGUUUAUCAUG | ≤ -4.2
33 | GGAUCUUCUCGAUCUAGCAAAAAAGACAAAUCUGCCACAAAGCUUGAGAGCAUCUUCGGAAGCAGAGGCGACAGCCUUCGGUGGCGCGAUAGCGCCAACGUUCUCAACUAUGACACGCAAAACGCGUGCUCCGUUGAAUGGAAUUUAUCAUG | ≤ -4.2
34 | GGAUCUUCUCGAUCUAGCAAAAAAGACAAAUCUGCCACAAAGCUUGAGAGCAUCUUCGUAUGCAGAGGCGGCAGCCUUCGGUGGCGCGAUAGCGCCCAGGUUCUCAACUAUGACACGCAAAACGCGUGCUCCGUUGAAUGGAGUUUAUCAUG | -2.61
35 | GGAUCUUCUCGAUCUAGCAAAAAAGACAAAUCUGCCACAAAGCUUGAGAGCAUCUUCGGAUGCAGAGGCGACAGCCUUCGGUGGCGCGAUAGCGCCAACGUUCUCAACUAUGACACGCAAAACGCGUGCUCCGUUGAAUGGAGUUUAUCAUG | -3.06
36 | GGAUCUUCUCGAUCUAGCAAAAAAGACAAAUCUGCCACAAAGCUUGAGAGCAUCUUCGGAUGCAGAGGCGGCAGCCUUCGGUGGCGCGAUAGCGCCAACGUUCUCAACUAUGACACGCAAAACGCGUGCUCCGGUGAAUGGAGUUUAUCAUG | -1.76
37 | GGAUCUUCUCGAUCUAGCAAAAAAGACAAAUCUGCCACAAAGCUUGAGAGCAUCUUCGGAUGCAGAGGCGGCAGCCUUCGGUGGCGCGAUAGCGCCAACGUUCUCAACUAUGACACGCAAAACGCGUGGUCCGUUGAAUGGAGUUUAUCAUG | -3.57
38 | GGAUCUUCUCGAUCUAUCAAAUAAGACAAAUCUGCCACAAAGCUUGAGAGCGUCUUCGGAUGCAGAGGCGGCAGCCUUCGGUGGCGCGAUACCGCCAACGUUCUCAACUAUGACGCGCAAAACGCGUGCUCCGUUGAAUGGAGUUUAUCAUG | -2.67
